Experimental data as given in the supplement of paper PMC5998384.

How the values were obtained:
HeLa Kyoto [1] = assay: solubility in G1/S (NP-40 vs SDS abundance) (log2 ratio); higher = more soluble; conditions: cell cycle stage: G1/S
HeLa Kyoto [2] = assay: solubility change mitosis vs G1/S (difference of NP-40 vs SDS log2 ratios) (log2 ratio difference); higher = more soluble in mitosis
HeLa Kyoto [3] = assay: melting temperature (median over replicates), in situ; higher = more thermally stable
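Throughout, for melting temperature (median over replicates), in situ: HeLa Kyoto cells synchronized by double thymidine or nocodazole block, proteins quantified by TMT10plex mass spectrometry, three independent biological replicates.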
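Throughout, for solubility change mitosis vs G1/S (difference of NP-40 vs SDS log2 ratios): synchronized HeLa Kyoto cells (double thymidine block for G1/S, nocodazole release for mitosis), protein amounts in NP-40 versus SDS lysates quantified by mass spectrometry, three biological replicates.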
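Throughout, for solubility in G1/S (NP-40 vs SDS abundance): HeLa Kyoto cells arrested at G1/S by double thymidine block, proteins quantified by TMT10plex mass spectrometry in mild NP-40 versus SDS extracts, three biological replicates.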

Chain of ZNF593 (chain, as listed by the source): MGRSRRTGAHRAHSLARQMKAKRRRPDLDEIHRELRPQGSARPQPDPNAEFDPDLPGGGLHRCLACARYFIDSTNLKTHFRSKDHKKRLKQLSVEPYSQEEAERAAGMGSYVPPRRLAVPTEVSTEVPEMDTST

Substance	solubility in G1/S (log2) (HeLa Kyoto [1])	solubility change mitosis (log2) (HeLa Kyoto [2])	melting temperature (HeLa Kyoto [3]; cell cycle stage: G1/S)	melting temperature (HeLa Kyoto [3]; cell cycle stage: mitosis)
MDTEPNPGTSSVSTTTSSTTTTTITTSSSRMQQPQISVYSGSDRHAVQVIQQALHRPPSSAAQYLQQMYAAQQQHLMLHTAALQQQHLSSSQLQSLAAVQASLSSGRPSTSPTGSVTQQSSMSQTSINLSTSPTPAQLISRSQASSSTSGSITQQTMLLGSTSPTLTASQAQMYLRAQMLIFTPATTVAAVQSDIPVVSSSSSSSCQSAATQVQNLTLRSQKLGVLSSSQNGPPKSTSQTQSLTICHNKTTVTSSKISQRDPSPESNKKGESPSLESRSTAVTRTSSIHQLIAPASYSPIQPHSLIKHQQIPLHSPPSKVSHHQLILQQQQQQIQPITLQNSTQDPPPSQHCIPLQNHGLPPAPSNAQSQHCSPIQSHPSPLTVSPNQSQSAQQSVVVSPPPPHSPSQSPTIIIHPQALIQPHPLVSSALQPGPNLQQSTANQVQATAQLNLPSHLPLPASPVVHIGPVQQSALVSPGQQIVSPSHQQYSSLQSSPIPIASPPQMSTSPPAQIPPLPLQSMQSLQVQPEILSQGQVLVQNALVSEEELPAAEALVQLPFQTLPPPQTVAVNLQVQPPAPVDPPVVYQVEDVCEEEMPEESDECVRMDRTPPPPTLSPAAITVGRGEDLTSEHPLLEQVELPAVASVSASVIKSPSDPSHVSVPPPPLLLPAATTRSNSTSMHSSIPSIENKPPQAIVKPQILTHVIEGFVIQEGLEPFPVSRSSLLIEQPVKKRPLLDNQVINSVCVQPELQNNTKHADNSSDTEMEDMIAEETLEEMDSELLKCEFCGKMGYANEFLRSKRFCTMSCAKRYNVSCSKKFALSRWNRKPDNQSLGHRGRRPSGPDGAAREHILRQLPITYPSAEEDLASHEDSVPSAMTTRLRRQSERERERELRDVRIRKMPENSDLLPVAQTEPSIWTVDDVWAFIHSLPGCQDIADEFRAQEIDGQALLLLKEDHLMSAMNIKLGPALKICARINSLKES [PHC3]	-0.44	0.439	46.5 °C	50.2 °C
MGNLFGRKKQSRVTEQDKAILQLKQQRDKLRQYQKRIAQQLERERALARQLLRDGRKERAKLLLKKKRYQEQLLDRTENQISSLEAMVQSIEFTQIEMKVMEGLQFGNECLNKMHQVMSIEEVERILDETQEAVEYQRQIDELLAGSFTQEDEDAILEELSAITQEQIELPEVPSEPLPEKIPENVPVKARPRQAELVAAS [CHMP6]	0.453	0.149	–	52.2 °C
RPL22L1	-0.564	0.209	53.8 °C	52 °C
MAVCGLGSRLGLGSRLGLRGCFGAARLLYPRFQSRGPQGVEDGDRPQPSSKTPRIPKIYTKTGDKGFSSTFTGERRPKDDQVFEAVGTTDELSSAIGFALELVTEKGHTFAEELQKIQCTLQDVGSALATPCSSAREAHLKYTTFKAGPILELEQWIDKYTSQLPPLTAFILPSGGKISSALHFCRAVCRRAERRVVPLVQMGETDANVAKFLNRLSDYLFTLARYAAMKEGNQEKIYMKNDPSAESEGL [MMAB]	0.574	0.126	51.8 °C	55.8 °C
MDDSETGFNLKVVLVSFKQCLDEKEEVLLDPYIASWKGLVRFLNSLGTIFSFISKDVVSKLRIMERLRGGPQSEHYRSLQAMVAHELSNRLVDLERRSHHPESGCRTVLRLHRALHWLQLFLEGLRTSPEDARTSALCADSYNASLAAYHPWVVRRAVTVAFCTLPTREVFLEAMNVGPPEQAVQMLGEALPFIQRVYNVSQKLYAEHSLLDLP [CPTP]	-0.0351	-0.256	49.1 °C	48.4 °C
MEPPNLYPVKLYVYDLSKGLARRLSPIMLGKQLEGIWHTSIVVHKDEFFFGSGGISSCPPGGTLLGPPDSVVDVGSTEVTEEIFLEYLSSLGESLFRGEAYNLFEHNCNTFSNEVAQFLTGRKIPSYITDLPSEVLSTPFGQALRPLLDSIQIQPPGGSSVGRPNGQS [DESI1]	0.341	-0.0645	47.1 °C	48.4 °C
ZNF593	-0.278	1.09	57.9 °C	51.7 °C
MASYFDEHDCEPSDPEQETRTNMLLELARSLFNRMDFEDLGLVVDWDHHLPPPAAKTVVENLPRTVIRGSQAELKCPVCLLEFEEEETAIEMPCHHLFHSSCILPWLSKTNSCPLCRYELPTDDDTYEEHRRDKARKQQQQHRLENLHGAMYT [RNF181]	0.563	0.00514	54.8 °C	55.8 °C
MSAKPEVSLVREASRQIVAGGSAGLVEICLMHPLDVVKTRFQIQRCATDPNSYKSLVDSFRMIFQMEGLFGFYKGILPPILAETPKRAVKFFTFEQYKKLLGYVSLSPALTFAIAGLGSGLTEAIVVNPFEVVKVGLQANRNTFAEQPSTVGYARQIIKKEGWGLQGLNKGLTATLGRHGVFNMVYFGFYYNVKNMIPVNKDPILEFWRKFGIGLLSGTIASVINIPFDVAKSRIQGPQPVPGEIKYRTCFKTMATVYQEEGILALYKGLLPKIMRLGPGGAVMLLVYEYTYSWLQENW [SLC25A21]	-0.251	-0.00648	56.9 °C	55.7 °C
